Results published in paper PMC6546359.

T1: CsrA-Strep (Bacillus subtilis, UniProt P33911 1-74)
T1 sequence: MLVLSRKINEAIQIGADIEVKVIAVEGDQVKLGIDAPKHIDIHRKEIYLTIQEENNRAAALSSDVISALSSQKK

B1: FsrA (structured_RNA)
RNA: AUAGAGAGAAGCUACUCUCUGUUCCCCAACCCCUCUAUCAGAUCAAGAUCCGGAAAAAACUUGGCGCUACCCCCGCCAAGUUUUU
B2: RnaC (structured_RNA)
RNA: UAAGGCCGGCGCGAUACUCCCUAUAACAUCCUUUUCAGUAGAUUUCAUUAUCGUGCCGGUUUUCUCAUAUGCAAAGCAAUCCCGCCAAUCAGAUUGGCGGGGAUUUUAUAUUU
B3: RoxS (structured_RNA)
RNA: GUGAAAUUGAUCACAAACAAACAUUACCCCUUUGUUUGACCGUGAAAAUUUCUCCCAUCCCCUUUGUUGUCGUUAAGACAUAUGAAACCGCGCUUAUCCCGGCGCGGUUUCUUU

What follows are binders tested against T1, CsrA-Strep (assay: EMSA).

Q: Does B1 bind?
A: no binding

Q: Does B2 bind?
A: no binding

Q: Does B3 bind?
A: no binding
